# Experimental data: paper doi:10.1101/2024.12.16.628640
# What was measured:
# [1] = molecular target: D-glucose isomerase (D-xylose isomerase, XylA) of Xanthomonas campestris, His-tagged (Xanthomonas campestris); assay: SEC
# [2] = molecular target: D-glucose isomerase (XylA) of Xanthomonas campestris with the exchange W147S, His-tagged (Xanthomonas campestris); assay: SEC
stoichiometry N [1],stoichiometry N [2],Substance
2,,"D-glucose isomerase (D-xylose isomerase, XylA) of Xanthomonas campestris, His-tagged (enzyme)"
,2,"D-glucose isomerase (XylA) of Xanthomonas campestris with the exchange W147S, His-tagged (enzyme)"
